# From US20190233493A1 (Sanofi, published 2019)
# *1 amine or outer side, *2 acyl side, *3 side chain or, on linkers, in order; H or OH if unused. Primed or numbered codes have the meaning given here. Side-chain parts run from the residue outwards. [ ]: non-standard residue; d: D form. The star is where a group is joined. TTDS(3) = O=C(CCC(=O)[*:2])NCCCOCCOCCOCCCN[*:1]; Lys(Me3) = C[N+](C)(C)CCCC[C@H](N)C(=O)O; Arg(Me2s) = CN=C(NC)NCCC[C@H](N)C(=O)O; γGlu = O=C(O)[C@H](CCC(=O)[*:2])N[*:1]; Arg(Me) = CNC(=N)NCCC[C@H](N)C(=O)O; Stearoyl = CCCCCCCCCCCCCCCCCC(=O)*; Palmitoyl = CCCCCCCCCCCCCCCC(=O)*; αMeK = C[C@](N)(CCCCN)C(=O)O; Nle = CCCC[C@H](N)C(=O)O; PEG2′ = PEG2 spacer unit; PEG2″ = not defined here; Aib = CC(C)(N)C(=O)O
# T1: RXFP1 receptor (UniProt Q9HBX9 1-757, limits assumed)
# T1 sequence (looked up): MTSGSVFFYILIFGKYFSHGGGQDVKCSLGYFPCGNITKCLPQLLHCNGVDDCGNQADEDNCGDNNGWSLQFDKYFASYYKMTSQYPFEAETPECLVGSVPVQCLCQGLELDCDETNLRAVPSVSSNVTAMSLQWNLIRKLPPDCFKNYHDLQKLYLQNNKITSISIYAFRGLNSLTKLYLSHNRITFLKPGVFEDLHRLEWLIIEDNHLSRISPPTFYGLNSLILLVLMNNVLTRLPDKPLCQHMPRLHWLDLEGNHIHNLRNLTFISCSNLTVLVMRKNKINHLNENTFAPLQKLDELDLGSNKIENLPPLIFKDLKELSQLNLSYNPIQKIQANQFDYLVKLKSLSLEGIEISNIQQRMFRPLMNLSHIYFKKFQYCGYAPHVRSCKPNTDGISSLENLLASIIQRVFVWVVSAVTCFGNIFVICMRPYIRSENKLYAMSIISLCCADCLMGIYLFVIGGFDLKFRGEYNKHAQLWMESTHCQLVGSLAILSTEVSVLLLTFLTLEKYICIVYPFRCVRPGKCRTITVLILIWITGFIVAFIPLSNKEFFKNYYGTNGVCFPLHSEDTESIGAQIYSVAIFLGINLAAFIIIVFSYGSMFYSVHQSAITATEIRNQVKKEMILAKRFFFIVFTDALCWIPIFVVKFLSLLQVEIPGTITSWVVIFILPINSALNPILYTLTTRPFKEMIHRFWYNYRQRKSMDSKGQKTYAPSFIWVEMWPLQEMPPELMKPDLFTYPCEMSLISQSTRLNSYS
# B1: peptide of SEQ ID NO: 139 (peptide)
# peptide: Ac-LEGREKVRAK(Ac)I[Aib][Aib]EG[Nle]STFSXAAK(Ac)[PEG2′][PEG2′][PEG2′][PEG2′][γGlu][γGlu][γGlu]K([γGlu-Palmitoyl])-NH2
# modifications: not fully specified (some residues); printed as Ac-L-E-G-R-E-K-V-R-A-K(Ac)-I-Aib-Aib-E-G-Nle-S-T-F-S-Mly-A-A-K(Ac)-PEG2-PEG2-PEG2-PEG2-gE-gE-gE-K(gE-Palm)-NH2
# B2: peptide of SEQ ID NO: 145 (peptide)
# peptide: Ac-LEGREKVRAK(Ac)I[Aib][Aib]EG[Nle]STFSXRKK(Ac)[PEG2′][PEG2′][PEG2′][PEG2′][γGlu][γGlu][γGlu]K([γGlu-Palmitoyl])-NH2
# modifications: not fully specified (some residues); printed as Ac-L-E-G-R-E-K-V-R-A-K(Ac)-I-Aib-Aib-E-G-Nle-S-T-F-S-Mly-R-K-K(Ac)-PEG2-PEG2-PEG2-PEG2-gE-gE-gE-K(gE-Palm)-NH2
# B3: peptide of SEQ ID NO: 2 (peptide)
# peptide: Ac-LEGREKVRAQI[Aib][Aib]EG[Nle]STWS[Aib]RKK([γGlu-Palmitoyl])-NH2
# SMILES: CCCCCCCCCCCCCCCC(=O)N[C@@H](CCC(=O)NCCCC[C@H](NC(=O)[C@H](CCCCN)NC(=O)[C@H](CCCNC(=N)N)NC(=O)C(C)(C)NC(=O)[C@H](CO)NC(=O)[C@H](Cc1c[nH]c2ccccc12)NC(=O)[C@@H](NC(=O)[C@H](CO)NC(=O)[C@H](CCCC)NC(=O)CNC(=O)[C@H](CCC(=O)O)NC(=O)C(C)(C)NC(=O)C(C)(C)NC(=O)[C@@H](NC(=O)[C@H](CCC(N)=O)NC(=O)[C@H](C)NC(=O)[C@H](CCCNC(=N)N)NC(=O)[C@@H](NC(=O)[C@H](CCCCN)NC(=O)[C@H](CCC(=O)O)NC(=O)[C@H](CCCNC(=N)N)NC(=O)CNC(=O)[C@H](CCC(=O)O)NC(=O)[C@H](CC(C)C)NC(C)=O)C(C)C)[C@@H](C)CC)[C@@H](C)O)C(N)=O)C(=O)O
# B4: peptide of SEQ ID NO: 148 (peptide)
# peptide: Ac-LEGREKVRAK(Ac)I[Aib][Aib]EG[Nle]STWS[Aib][Arg(Me2s)]KK(Ac)K-NH2
# modifications: not fully specified (residue 25); printed as Ac-L-E-G-R-E-K-V-R-A-K(Ac)-I-Aib-Aib-E-G-Nle-S-T-W-S-Aib-Rds-K-K(Ac)-K(PEG2-PEG2-PEG2-gE-gE-gE-Stea)-NH2
# B5: peptide of SEQ ID NO: 146 (peptide)
# peptide: Ac-LEGREKVRAK(Ac)I[Aib][Aib]EG[Nle]STFS[αMeK]RKK(Ac)[TTDS(3)][TTDS(3)][γGlu][γGlu][γGlu]K([γGlu-Palmitoyl])-NH2
# SMILES: CCCCCCCCCCCCCCCC(=O)N[C@@H](CCC(=O)NCCCC[C@H](NC(=O)CC[C@H](NC(=O)CC[C@H](NC(=O)CC[C@H](NC(=O)CCC(=O)NCCCOCCOCCOCCCNC(=O)CCC(=O)NCCCOCCOCCOCCCNC(=O)[C@H](CCCCNC(C)=O)NC(=O)[C@H](CCCCN)NC(=O)[C@H](CCCNC(=N)N)NC(=O)[C@](C)(CCCCN)NC(=O)[C@H](CO)NC(=O)[C@H](Cc1ccccc1)NC(=O)[C@@H](NC(=O)[C@H](CO)NC(=O)[C@H](CCCC)NC(=O)CNC(=O)[C@H](CCC(=O)O)NC(=O)C(C)(C)NC(=O)C(C)(C)NC(=O)[C@@H](NC(=O)[C@H](CCCCNC(C)=O)NC(=O)[C@H](C)NC(=O)[C@H](CCCNC(=N)N)NC(=O)[C@@H](NC(=O)[C@H](CCCCN)NC(=O)[C@H](CCC(=O)O)NC(=O)[C@H](CCCNC(=N)N)NC(=O)CNC(=O)[C@H](CCC(=O)O)NC(=O)[C@H](CC(C)C)NC(C)=O)C(C)C)[C@@H](C)CC)[C@@H](C)O)C(=O)O)C(=O)O)C(=O)O)C(N)=O)C(=O)O
# Target: T1, RXFP1 receptor
# Assay: cell-based or functional assay
Binder,"EC50 (nM), OVCAR 5 cells (cAMP)","EMax, OVCAR 5 cells (cAMP)"
B1,0.3 nM,92%
B2,0.4 nM,99%
Ac-LEGREKVRAK(Ac)I[Aib][Aib]EG[Nle]STWS[Aib]RKK[PEG2″][PEG2″][PEG2″][PEG2″]K([γGlu-γGlu-γGlu-γGlu-Stearoyl])-NH2 [peptide of SEQ ID NO: 15],0.32 nM,92%
Ac-LEGREKVRAK(Ac)I[Aib][Aib]EG[Nle]STWS[αMeK][Arg(Me)][Lys(Me3)]K(Ac)K([PEG2′-PEG2′-PEG2′-PEG2′-γGlu-γGlu-γGlu-γGlu-Palmitoyl])-NH2 [peptide of SEQ ID NO: 141],0.16 nM,87%
B3,24 nM,100%
B4,0.11 nM,94%
Ac-LEGREKVRAK(Ac)I[Aib][Aib]EG[Nle]STWS[αMeK][Arg(Me)][Lys(Me3)]K(Ac)K([PEG2′-PEG2′-PEG2′-γGlu-γGlu-γGlu-Stearoyl])-NH2 [peptide of SEQ ID NO: 138],0.02 nM,91%
Ac-LEGREKVRAK(Ac)I[Aib][Aib]EG[Nle]STFS[Aib]RKK(Ac)K([PEG2′-PEG2′-PEG2′-PEG2′-γGlu-γGlu-γGlu-γGlu-Palmitoyl])-NH2 [peptide of SEQ ID NO: 147],2.14 nM,86%
Ac-LEGREKVRAK(Ac)I[Aib][Aib]EG[Nle]STWS[Aib][Arg(Me)][Lys(Me3)]K(Ac)K([PEG2′-PEG2′-PEG2′-γGlu-γGlu-γGlu-Stearoyl])-NH2 [peptide of SEQ ID NO: 137],0.21 nM,92%
Ac-LEGREKVRAK(Ac)I[Aib][Aib]EG[Nle]STFS[αMeK]RAK(Ac)[PEG2″][PEG2″][PEG2″][PEG2″][γGlu][γGlu][γGlu]K([γGlu-Palmitoyl])-NH2 [peptide of SEQ ID NO: 149],0.11 nM,87%
B5,0.02 nM,89%
Ac-LEGREKVRAK(Ac)I[Aib][Aib]EG[Nle]STFS[αMeK]RAK(Ac)[PEG2″][PEG2″][PEG2″][PEG2″]K([γGlu-γGlu-γGlu-γGlu-Palmitoyl])-NH2 [peptide of SEQ ID NO: 150],0.07 nM,92%
Ac-LEGREKVRAK(Ac)I[Aib][Aib]EG[Nle]STFS[αMeK]RKK(Ac)K([PEG2′-PEG2′-PEG2′-PEG2′-γGlu-γGlu-γGlu-γGlu-Palmitoyl])-NH2 [peptide of SEQ ID NO: 140],0.4 nM,88%
Ac-LEGREKVRAK(Ac)I[Aib][Aib]EG[Nle]STFS[αMeK]RKK(Ac)[PEG2′][PEG2′][PEG2′][PEG2′]K([γGlu-γGlu-γGlu-γGlu-Palmitoyl])-NH2 [peptide of SEQ ID NO: 143],0.4 nM,88%
Ac-LEGREKVRAK(Ac)I[Aib][Aib]EG[Nle]STFS[Aib]RKK(Ac)[PEG2′][PEG2′][PEG2′][PEG2′]K([γGlu-γGlu-γGlu-Palmitoyl])-NH2 [peptide of SEQ ID NO: 144],4.1 nM,94%
